{"source": "paper PMC10317887", "about": "“Hypoglycaemia frequency and physiological response after double or triple doses of once-weekly insulin icodec vs once-daily insulin glargine U100 in type 2 diabetes: a randomised crossover trial” (Diabetologia, 2023)", "key": {"[1]": {"system": "individuals with type 2 diabetes", "assay": "Vital signs during hypoglycaemia induction", "details": "triple dose", "method": "Hypoglycaemic response assessments were conducted at predefined PG levels during hypoglycaemia development and recovery (Fig. 1b). Hypoglycaemic symptoms score (HSS), hypoglycaemia awareness, counterregulatory hormones, vital signs and cognitive function tests were assessed at baseline (PG5.5 mmol/l), during hypoglycaemia development (PG3.9 mmol/l and PG3.0 mmol/l) and at PGnadir. In addition, counterregulatory hormones and vital signs were assessed during recovery from hypoglycaemia at PG3.0 mmol/l, PG3.9 mmol/l and PG5.5 mmol/l.\nVital signs (diastolic blood pressure, systolic blood pressure and pulse) were measured after ≥5 min of rest in a supine position.\n(§1) Changes in HSS, vital signs and cognitive function tests from baseline (PG5.5 mmol/l) to PG3.0 mmol/l and to PGnadir were compared between insulin products at each of the two dose levels using the same approach as described for PGnadir, except that no logarithmic transformation was done and that the baseline value was included as a covariate. Least-squares means, treatment difference and 95% CI were derived."}, "[2]": {"system": "individuals with type 2 diabetes", "assay": "Cognitive function: trail making B (TMB) test", "details": "for Change in TMB at PG3.0 mmol/l, least-squares mean / Change in TMB at PGnadir, least-squares mean: change from baseline, subgroup", "method": "(§2) Hypoglycaemic response assessments were conducted at predefined PG levels during hypoglycaemia development and recovery (Fig. 1b). Hypoglycaemic symptoms score (HSS), hypoglycaemia awareness, counterregulatory hormones, vital signs and cognitive function tests were assessed at baseline (PG5.5 mmol/l), during hypoglycaemia development (PG3.9 mmol/l and PG3.0 mmol/l) and at PGnadir.\n(§3) Cognitive function was assessed using the trail making B (TMB) test, the digit symbol substitution test (DSST) and the four-choice reaction time (4CRT) test. In the TMB test from the Halstead Reitan Neuropsychological Battery [16, 17], the participant connects 25 circles distributed on a chart in the correct sequence as quickly as possible. The circles contain a number (1–13) or a letter (A–L), and the correct sequence consists of alternating numbers and letters (i.e. 1–A–2–B–3 etc). The test result is the time needed to complete the task correctly. In the DSST, which is a subtest of the Wechsler Adult Intelligence Scale - Revised [18], nine digits are represented by nine different symbols. During 90 s, the participant is requested to write down the appropriate symbol for as many numbers as possible in a given array. The test result is the number of correct responses. […] In 100 cycles, the participant responds by pressing the corresponding position on a keypad. The test result has two components: percentage of correct answers and the mean response time.\nas §1"}, "[3]": {"system": "individuals with type 2 diabetes", "assay": "Cognitive function: digit symbol substitution test (DSST)", "details": "for Change in DSST at PG3.0 mmol/l, least-squares mean / Change in DSST at PGnadir, least-squares mean: change from baseline, subgroup", "method": "as §2, §3, §1"}, "[4]": {"system": "individuals with type 2 diabetes", "assay": "Cognitive function: four-choice reaction time (4CRT) test", "details": "for Change in 4CRT correctness at PG3.0 mmol/l, least-squares mean / Change in 4CRT response time at PG3.0 mmol/l, least-squares mean / Change in 4CRT correctness at PGnadir, least-squares mean / Change in 4CRT response time at PGnadir, least-squares mean: change from baseline, subgroup", "method": "as §2, §3, §1"}, "[5]": {"system": "individuals with type 2 diabetes", "assay": "Continuous glucose monitoring (CGM) after double and triple doses", "method": "In addition to self-measured PG, which was performed throughout the trial, and PG measurements performed at the clinical site, continuous glucose monitoring (CGM) was conducted from the first dose of the first treatment period until the end of the second treatment period (Dexcom G6; Dexcom, San Diego, CA, USA). CGM data were visible to the participants and the investigators but were not used for titration of basal insulin dose or for reporting hypoglycaemia.\nCGM data were summarised from the time of double or triple dose until the next insulin administration (excluding the period of hypoglycaemia induction experiments), thereby eliminating any confounding effect of other insulin."}, "[6]": {"system": "individuals with type 2 diabetes", "assay": "Safety: adverse events and non-induced hypoglycaemic episodes during treatment periods", "from_the_text": "Safety assessments during the trial included adverse events (AEs), hypoglycaemic episodes (other than those induced), vital signs (other than those assessed during hypoglycaemia induction), electrocardiograms, physical examinations and clinical laboratory assessments (haematology, biochemistry and urinalysis).\nAEs and hypoglycaemic episodes (other than those induced) during the treatment periods were summarised. The end of each treatment period was defined as 7 days after the last icodec dose and 2 days after the last glargine U100 dose. […] Hypoglycaemic episodes were classified as level 1 (PG <3.9 mmol/l and ≥3.0 mmol/l), level 2 (PG <3.0 mmol/l) and level 3 (severe cognitive impairment requiring assistance for recovery) [20]."}, "[7]": {"system": "individuals with type 2 diabetes", "assay": "Hypoglycaemic symptoms score (HSS, Edinburgh Hypoglycaemia Scale) during hypoglycaemia induction", "details": "for Change in HSS at PG3.0 mmol/l, least-squares mean: change from baseline PG5.5 mmol/l; for Change in HSS at PG3.0 mmol/l, least-squares mean / Change in HSS at PGnadir, least-squares mean: subgroup; for Change in HSS at PGnadir, least-squares mean: change from baseline", "method": "as §2\nThe validated Edinburgh Hypoglycaemia Scale was used to determine hypoglycaemic symptoms, which were classified into 11 different autonomic, neuroglycopenic and non-specific symptoms of hypoglycaemia [14, 15]. The participant scored each of the 11 symptoms on a seven-point scale (1=‘not at all’, while 7=‘a great deal’). The total score was derived as 11 multiplied by the mean score for all symptoms.\nas §1"}, "[8]": {"details": "change from baseline, subgroup, n=20 icodec, 28 glargine U100"}, "[9]": {"details": "change from baseline, subgroup, n=20 icodec, 29 glargine U100"}, "[10]": {"details": "double dose, n=16 icodec, 15 glargine U100"}, "[11]": {"details": "double dose, n=18 icodec, 18 glargine U100"}, "[12]": {"details": "triple dose, n=19 icodec, 28 glargine U100"}, "[13]": {"details": "triple dose, n=20 icodec, 28 glargine U100"}, "[14]": {"details": "double dose, n=18 icodec, 17 glargine U100"}, "[15]": {"details": "triple dose, n=20 icodec, 27 glargine U100"}, "[16]": {"details": "after double dose: first 2 weeks (icodec) / first 48 h (glargine U100), participants with clinically significant hypoglycaemia during induction"}, "[17]": {"details": "after triple dose: first week (icodec) / first 48 h (glargine U100), participants with clinically significant hypoglycaemia during induction"}, "[18]": {"details": "treatment periods, outside hypoglycaemia induction experiments"}}, "data": [{"substance": "insulin icodec", "values": [{"measurement": "Change in pulse at PGnadir, treatment difference (95% CI) icodec vs glargine U100", "setting": "[1]", "result": "0.5 (-4.8, 5.7)"}, {"measurement": "Change in DBP at PG3.0 mmol/l, least-squares mean", "setting": "[1]; [8]", "result": -2.4, "unit": "mmHg"}, {"measurement": "Change in SBP at PG3.0 mmol/l, least-squares mean", "setting": "[1]; [8]", "result": -0.9, "unit": "mmHg"}, {"measurement": "Change in pulse at PG3.0 mmol/l, least-squares mean", "setting": "[1]; [8]", "result": 3.1, "unit": "beats/min"}, {"measurement": "Change in DBP at PGnadir, least-squares mean", "setting": "[1]; [9]", "result": -1.1, "unit": "mmHg"}, {"measurement": "Change in SBP at PGnadir, least-squares mean", "setting": "[1]; [9]", "result": 1.8, "unit": "mmHg"}, {"measurement": "Change in pulse at PGnadir, least-squares mean", "setting": "[1]; [9]", "result": 2.8, "unit": "beats/min"}, {"measurement": "Change in TMB at PG3.0 mmol/l, treatment difference (95% CI) icodec vs glargine U100", "setting": "[2]; double dose", "result": "0.4 (-0.3, 1.0)"}, {"measurement": "Change in TMB at PGnadir, treatment difference (95% CI) icodec vs glargine U100", "setting": "[2]; double dose", "result": "0.3 (-0.2, 0.9)"}, {"measurement": "Change in TMB at PG3.0 mmol/l, least-squares mean", "setting": "[2]; [10]", "result": 0.3, "unit": "s"}, {"measurement": "Change in TMB at PGnadir, least-squares mean", "setting": "[2]; [11]", "result": 0.3, "unit": "s"}, {"measurement": "Change in TMB at PG3.0 mmol/l, treatment difference (95% CI) icodec vs glargine U100", "setting": "[2]; triple dose", "result": "-0.1 (-0.4, 0.2)"}, {"measurement": "Change in TMB at PGnadir, treatment difference (95% CI) icodec vs glargine U100", "setting": "[2]; triple dose", "result": "-0.1 (-0.3, 0.1)"}, {"measurement": "Change in TMB at PGnadir, least-squares mean", "setting": "[2]; [12]", "result": -0.0, "unit": "s"}, {"measurement": "Change in TMB at PG3.0 mmol/l, least-squares mean", "setting": "[2]; triple dose, n=20 icodec, 26 glargine U100", "result": -0.0, "unit": "s"}, {"measurement": "Change in DSST at PG3.0 mmol/l, treatment difference (95% CI) icodec vs glargine U100", "setting": "[3]; double dose", "result": "1.2 (-3.1, 5.5)"}, {"measurement": "Change in DSST at PGnadir, treatment difference (95% CI) icodec vs glargine U100", "setting": "[3]; double dose", "result": "0.6 (-3.7, 4.9)"}, {"measurement": "Change in DSST at PG3.0 mmol/l, least-squares mean", "setting": "[3]; [10]", "result": "-5.4 number of correct responses"}, {"measurement": "Change in DSST at PGnadir, least-squares mean", "setting": "[3]; [11]", "result": "-6.7 number of correct responses"}, {"measurement": "Change in DSST at PG3.0 mmol/l, treatment difference (95% CI) icodec vs glargine U100", "setting": "[3]; triple dose", "result": "0.5 (-3.3, 4.3)"}, {"measurement": "Change in DSST at PGnadir, treatment difference (95% CI) icodec vs glargine U100", "setting": "[3]; triple dose", "result": "-2.2 (-6.8, 2.5)"}, {"measurement": "Change in DSST at PGnadir, least-squares mean", "setting": "[3]; triple dose, n=19 icodec, 29 glargine U100", "result": "-9.1 number of correct responses"}, {"measurement": "Change in DSST at PG3.0 mmol/l, least-squares mean", "setting": "[3]; [13]", "result": "-5.5 number of correct responses"}, {"measurement": "Change in 4CRT correctness at PG3.0 mmol/l, treatment difference (95% CI) icodec vs glargine U100", "setting": "[4]; double dose", "result": "0.2 (-1.1, 1.4)"}, {"measurement": "Change in 4CRT correctness at PGnadir, treatment difference (95% CI) icodec vs glargine U100", "setting": "[4]; double dose", "result": "-0.2 (-1.3, 0.9)"}, {"measurement": "Change in 4CRT response time at PG3.0 mmol/l, treatment difference (95% CI) icodec vs glargine U100", "setting": "[4]; double dose", "result": "-79.7 (-170.4, 10.9)"}, {"measurement": "Change in 4CRT response time at PGnadir, treatment difference (95% CI) icodec vs glargine U100", "setting": "[4]; double dose", "result": "-97.1 (-230.5, 36.3)"}, {"measurement": "Change in 4CRT correctness at PG3.0 mmol/l, least-squares mean", "setting": "[4]; [10]", "result": 0.1, "unit": "%-points"}, {"measurement": "Change in 4CRT response time at PG3.0 mmol/l, least-squares mean", "setting": "[4]; [10]", "result": 19.7, "unit": "ms"}, {"measurement": "Change in 4CRT correctness at PGnadir, least-squares mean", "setting": "[4]; [14]", "result": -0.3, "unit": "%-points"}, {"measurement": "Change in 4CRT response time at PGnadir, least-squares mean", "setting": "[4]; [14]", "result": 40.4, "unit": "ms"}, {"measurement": "Change in 4CRT correctness at PG3.0 mmol/l, treatment difference (95% CI) icodec vs glargine U100", "setting": "[4]; triple dose", "result": "0.1 (-0.7, 0.9)"}, {"measurement": "Change in 4CRT correctness at PGnadir, treatment difference (95% CI) icodec vs glargine U100", "setting": "[4]; triple dose", "result": "0.4 (-0.9, 1.7)"}, {"measurement": "Change in 4CRT response time at PG3.0 mmol/l, treatment difference (95% CI) icodec vs glargine U100", "setting": "[4]; triple dose", "result": "11.8 (-44.0, 67.6)"}, {"measurement": "Change in 4CRT response time at PGnadir, treatment difference (95% CI) icodec vs glargine U100", "setting": "[4]; triple dose", "result": "-66.7 (-155.8, 22.4)"}, {"measurement": "Change in 4CRT correctness at PGnadir, least-squares mean", "setting": "[4]; [12]", "result": -0.3, "unit": "%-points"}, {"measurement": "Change in 4CRT response time at PGnadir, least-squares mean", "setting": "[4]; [12]", "result": 21.3, "unit": "ms"}, {"measurement": "Change in 4CRT correctness at PG3.0 mmol/l, least-squares mean", "setting": "[4]; [15]", "result": -0.3, "unit": "%-points"}, {"measurement": "Change in 4CRT response time at PG3.0 mmol/l, least-squares mean", "setting": "[4]; [15]", "result": 55.4, "unit": "ms"}, {"measurement": "Percentage time spent with glucose <3.9 mmol/l (CGM), mean±SD", "setting": "[5]; after double dose: first 2 weeks (icodec) / first 48 h (glargine U100), all participants", "result": "0.99±2.12", "unit": "%"}, {"measurement": "Percentage time spent with glucose <3.0 mmol/l (CGM), mean±SD", "setting": "[5]; after double dose: first 2 weeks (icodec) / first 48 h (glargine U100), all participants, induction period excluded", "result": "0.15±0.44", "unit": "%"}, {"measurement": "Percentage time spent with glucose <3.0 mmol/l (CGM), mean±SD", "setting": "[5]; [16]", "result": "0.21±0.45", "unit": "%"}, {"measurement": "Percentage time spent with glucose <3.9 mmol/l (CGM), mean±SD", "setting": "[5]; [16]", "result": "1.63±2.75", "unit": "%"}, {"measurement": "Percentage time spent with glucose <3.9 mmol/l (CGM), mean±SD", "setting": "[5]; after triple dose: first week (icodec) / first 48 h (glargine U100), all participants", "result": "1.56±3.54", "unit": "%"}, {"measurement": "Percentage time spent with glucose <3.0 mmol/l (CGM), mean±SD", "setting": "[5]; after triple dose: first week (icodec) / first 48 h (glargine U100), all participants, induction period excluded", "result": "0.29±1.24", "unit": "%"}, {"measurement": "Percentage time spent with glucose <3.0 mmol/l (CGM), mean±SD", "setting": "[5]; [17]", "result": "0.56±1.70", "unit": "%"}, {"measurement": "Percentage time spent with glucose <3.9 mmol/l (CGM), mean±SD", "setting": "[5]; [17]", "result": "2.67±4.71", "unit": "%"}, {"measurement": "Number of level 2 hypoglycaemic episodes", "setting": "[6]; from end of hypoglycaemia induction experiment until 1 week after triple dose", "result": "six episodes in five individuals"}, {"measurement": "Number of level 2 hypoglycaemic episodes", "setting": "[6]; from end of hypoglycaemia induction experiment until 2 weeks after double dose", "result": "four episodes in three individuals"}, {"measurement": "Duration of level 2 hypoglycaemic episodes, mean±SD", "setting": "[6]; over both doses, treatment periods, outside induction", "result": "25.3 ± 8.5", "unit": "min"}, {"measurement": "AE rate", "setting": "[6]; treatment periods", "result": "10.9 AEs per participant-year of exposure"}, {"measurement": "Rate of clinically significant hypoglycaemic episodes (level 2, PG <3.0 mmol/l)", "setting": "[6]; [18]", "result": "3.4 episodes per participant-year of exposure"}, {"measurement": "Severe hypoglycaemic episodes (level 3)", "setting": "[6]; [18]", "result": "no severe hypoglycaemic episodes"}, {"measurement": "Number of AEs reported", "setting": "[6]; treatment periods, exposure 4.8 participant-years icodec, 1.6 glargine U100", "result": 52, "unit": "AEs"}, {"measurement": "Change in HSS at PG3.0 mmol/l, treatment difference (95% CI) icodec vs glargine U100", "setting": "[7]; double dose", "result": "1.2 (-1.5, 4.0)"}, {"measurement": "Change in HSS at PGnadir, treatment difference (95% CI) icodec vs glargine U100", "setting": "[7]; double dose", "result": "-0.3 (-4.0, 3.5)"}, {"measurement": "Change in HSS at PG3.0 mmol/l, least-squares mean", "setting": "[7]; double dose, n=17 icodec, 15 glargine U100", "result": 1.8}, {"measurement": "Change in HSS at PGnadir, least-squares mean", "setting": "[7]; double dose, n=20 icodec, 19 glargine U100", "result": 6.0}, {"measurement": "Change in HSS at PGnadir, treatment difference (95% CI) icodec vs glargine U100", "setting": "[7]; triple dose", "result": "0.5 (-2.7, 3.6)"}, {"measurement": "Change in HSS at PG3.0 mmol/l, least-squares mean", "setting": "[7]; [13]", "result": 2.2}, {"measurement": "Change in HSS at PGnadir, least-squares mean", "setting": "[7]; triple dose, n=20 icodec, 29 glargine U100", "result": 5.4}, {"measurement": "Change in HSS at PG3.0 mmol/l, treatment difference (95% CI) icodec vs glargine U100", "setting": "[7]; triple dose, listed as Insulin icodec", "result": "-0.4 (-2.6, 1.8)"}, {"measurement": "Change in HSS at PG3.0 mmol/l, treatment difference (95% CI) icodec vs glargine U100", "setting": "[7]; triple dose, listed as icodec", "result": "−0.4"}]}]}
